{"source": "paper PMC12622518", "about": "(Advanced Science, 2025)", "molecules": {"B1": {"name": "genetically encoded glutarate fluorescent biosensor Glusor (other)", "chain": "LDEMNDIYDARANLEAMIIALAIERGDDAWEASVLAHSHTLAKVVEVKTREQRLDVWDERHKAFHTAIASGCGSKHLLQARTYLFDQAERYRHLWLTQTVFSEEALALKRQEHAALVEVILARDAKTASAMMRSHLMTPVPIIAQIMHAEGIGAR"}, "B2": {"name": "GntR family transcriptional regulator CsiR (natural protein, P. putida KT2440, UniProt Q88IU1 1-231, looked up)", "chain": "MEALAPRQNSAFSGYERLKKDIIRGVFKPGEKLLMSTLKERYDLGVGPLREALSQLVAEHLVNAISQKGYRVAPMSLDEMNDIYDARANLEAMIIALAIERGDDAWEASVLAHSHTLAKVVEVKTREQRLDVWDERHKAFHTAIASGCGSKHLLQARTYLFDQAERYRHLWLTQTVFSEEALALKRQEHAALVEVILARDAKTASAMMRSHLMTPVPIIAQIMHAEGIGAR", "notes": "CsiR, GntR family transcriptional regulator of the csiD-lhgO operon, Pseudomonas putida KT2440; csiR gene cloned into pETDuet-1 (pETDuet-CsiR); also called His6-tagged CsiR"}}, "key": {"[1]": {"biological_target": "ligand-binding domain of CsiR (CsiR-LBD) (P. putida KT2440)", "assay": "SEC; gel filtration on Superdex 200 10/300 GL, 50 mM sodium phosphate buffer pH 7.2, 150 mM NaCl; mass standards aprotinin, ovalbumin, conalbumin, aldolase, ferritin"}, "YnfM": {"biological_target": "T1, YnfM (Escherichia coli, UniProt P43531)", "T1 construct": "native MFS exporter in living E. coli BL21(DE3) cells; ynfM knockout comparison with Glusor read-out", "T1 sequence (P43531 1-417)": "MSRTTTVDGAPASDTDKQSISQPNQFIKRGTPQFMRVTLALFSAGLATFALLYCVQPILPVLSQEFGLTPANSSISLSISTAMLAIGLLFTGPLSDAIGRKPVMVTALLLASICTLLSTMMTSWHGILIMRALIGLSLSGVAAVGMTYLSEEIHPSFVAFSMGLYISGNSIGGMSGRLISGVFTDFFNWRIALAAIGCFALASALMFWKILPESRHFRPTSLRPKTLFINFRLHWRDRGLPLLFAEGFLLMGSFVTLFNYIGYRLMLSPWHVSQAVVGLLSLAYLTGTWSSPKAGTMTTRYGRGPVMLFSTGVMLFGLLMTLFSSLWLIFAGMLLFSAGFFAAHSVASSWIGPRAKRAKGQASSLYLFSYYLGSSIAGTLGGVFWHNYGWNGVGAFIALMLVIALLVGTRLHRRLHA", "assay": "efflux in knockout versus parent E. coli, intra- and extracellular Glusor fluorescence", "type": "cell-based", "settings": "carbon starvation, 30 °C"}, "CsiR": {"biological_target": "T2, CsiR (Pseudomonas putida, UniProt Q88IU1)", "T2 construct": "full-length, His6-tagged, purified from E. coli BL21(DE3) (pETDuet-CsiR); dimer", "T2 sequence (Q88IU1 1-231)": "B2 chain", "assay": "fluorescence-based thermal shift (SYPRO Orange)", "type": "binding", "settings": "100 µM ligand; 20 mM sodium phosphate, 150 mM NaCl, pH 7.4"}, "[2]": {"biological_target": "the molecule itself", "assay": "SEC; gel filtration on Superdex 200 10/300 GL, 50 mM sodium phosphate buffer pH 7.2, 150 mM NaCl; mass standards aprotinin, ovalbumin, conalbumin, aldolase, ferritin"}}}
{"molecule": "ligand-binding domain of CsiR (CsiR-LBD) (domain or fragment)", "values": [{"measurement": "stoichiometry N", "setting": "[1]", "value": 2}]}
{"molecule": "O=C(O)CCCC(=O)O", "note": "[glutarate]", "values": [{"measurement": "efflux in knockout versus parent E. coli, intra- and extracellular Glusor fluore", "setting": "YnfM", "value": "YnfM may be the only functional glutarate exporter in E. coli BL21(DE3)"}, {"measurement": "ΔTm", "setting": "CsiR", "value": "only glutarate induced a significant increase in the melting temperature (Tm) of CsiR"}]}
{"molecule": "B1", "values": [{"measurement": "stoichiometry N", "setting": "[2]", "value": 2}]}
{"molecule": "B2", "values": [{"measurement": "stoichiometry N", "setting": "[2]", "value": 2}]}
